From the DeepSol protein solubility set

assay: soluble on expression in E. coli; label from the status in PepcDB or PDB records

| Sequence | soluble on expression in E. coli |
| --- | --- |
| MGSDKIHHHHHHMPKRIVKLEAGYNCRDLGGYVSQDGRTVKWGRLYRSGSLSHLTKADQAELARRKIVVDCDLRSRHEQDNFPDKLWPGSKLVDAHFYSESGDEEEEAEAAWEKYSSKLPKLSYLAMVYQQNLVVPRTGLVMREIFKEMLDLEDDEALLYHCSMGKDRTGMVSVIVLMALGLEDREILRDYLLSREYSRDWDEADENDRLGKQIAKMNQTQVSQTAFYGITETIRQMWGGFDRYFASLGFDQGDLDRLRDKFLE | not soluble |
| MKPYYVTTAIAYPNAAPHVGHAYEYIATDAIARFKRLDRYDVRFLTGTDEHGLKVAQAAAAAGVPTAALARRNSDVFQRMQEALNISFDRFIRTTDADHHEASKELWRRMSAAGDIYLDNYSGWYSVRDERFFVESETQLVDGTRLTVETGTPVTWTEEQTYFFRLSAYTDKLLAHYHANPDFIAPETRRNEVISFVSGGLDDLSISRTSFDWGVQVPEHPDHVMYVWVDALTNYLTGAGFPDTDSELFRRYWPADLHMIGKDIIRFHAVYWPAFLMSAGIELPRRIFAHGFLHNRGEKMSKSVGNIVDPVALAEALGVDQVRYFLLREVPFGQDGSYSDEAIVTRINTDLANELGNLAQRSLSMVAKNLDGRVPNPGEFADADAALLATADGLLERVRGHFDAQAMHLALEAIWLMLGDANKYFSVQQPWVLRKSESEADQARFRTTLYVTCEVVRIAALLIQPVMPESAGKILDLLGQAPNQRSFAAVGVRLTPGTALPPPTGVFPRYQPPQPPEGK | not soluble |
| RLIRSVLCSSSAGFGQGFCSPSLRRHLSARFPRGHGNALANFSSCARSRVHAYSSASSATSVGVPVAKMRFIDIGANLLDEMYTGQYNDKPYHPPDLSAVLERAWAAGLEKLMITAGSLKEARAALELAKTDERLYCTVGCHPTRCKEFEDHPGGPEAYLQELLEVLKEGQALGKVVAVGECGLVATDYERLHFCDADTQKKYFEAQFRLAKESGLPMFLHLRAAADDFLDITGRHLGDFPRGGVVHSFDGTAEEAARVLAVPQLAIGINGCSLKTDDNLAVVGGLPLERIMLETDCPWCEIRPTHAGRKHVSAEALAGVTGAKDRKKFMPGCQVKS | not soluble |
| MSLARFVVLVIDSFGVGAMKDVTLVRPQDAGANTCGHILSQLPHLQLPTLETLGLINALGYAPGDMQPSDSATWGVAELQHEGGDTFMGHQEILGTRPLPPLRMPFRDVIDRVEQALVSAGWQVERRGDDLQFLWVNQAVAIGDNLEADLGQVYNITANLSVISFDDAIKIGRIVREQVQVGRVITFGGLLTDSQRILDAAESKEGRFIGINAPRSGAYDNGFQVVHMGYGVDEKVQVPQKLYEAGVPTVLVGKVADIVNNPYGVSWQNLVDSQRIMDITLNEFNTHPTAFICTNIQETDLAGHAEDVARYAERLQVVDRNLARLVEAMQPDDCLVVMADHGNDPTIGHSHHTREVVPVLVYQQGMIATQLGVRTTLSDVGATVCEFFRAPPPQNGRSFLSSLRFAGDTLEGHHHHHH | soluble |
| GPGSMDVARTMRATAGGKAFAVVAAEQTAGRGTGGRTWTSPKGNLYMTVGVPQLGQPPCLKEELVPVLPLICGLACRRAVLEVLHLDGALAKASVAADAAKAVATKWPNDIIYNHKKIGGTLIESDGDYLIIGIGMNIAVAPQMTDAGREATMINTIAEDFGVKSCPPRDLANAIWCHLFDICSSPEWTRELVIESFDKVMDKSLKLHKRLPGGRDPEELTAVSLNSWGHLKVRHADGTVEDLSAEYLF | not soluble |
| MSLSDGAVVRALVLEAPRRLVVRQYRLPRIGDDDALVRVEACGLCGTDHEQYTGELAGGFAFVPGHETVGTIAAIGPRAEQRWGVSAGDRVAVEVFQSCRQCANCRGGEYRRCVRHGLADMYGFIPVDREPGLWGGYAEYQYLAPDSMVLRVAGDLSPEVATLFNPLGAGIRWGVTIPETKPGDVVAVLGPGIRGLCAAAAAKGAGAGFVMVTGLGPRDADRLALAAQFGADLAVDVAIDDPVAALTEQTGGLADVVVDVTAKAPAAFAQAIALARPAGTVVVAGTRGVGSGAPGFSPDVVVFKELRVLGALGVDATAYRAALDLLVSGRYPFASLPRRCVRLEGAEDLLATMAGERDGVPPIHGVLTEGHHHHHH | not soluble |
| MAHHHHHHMMMMRPDAGRRGDRHEVTRSQWEMHNSVITDDAFLFPKMELMEELHKTQPWKKSPRYFQRVKVSVLAALQMMIHAKRGSPNVTCSNGSGVADSSAASMRNEPSRENWFEVMVLMLGHFNEDEMIVTSAFALPVDASEVECSMNDASQLYMLDFLQYHQRGGTQEGCIGWYHSHPGYTCFLSGTDVNTQQLGQTAQDPWLAIVVDPVRTISTGKLDMKAFRTFPEKYVAEQQGTSQHTQGKHWEGSTTSTWVPSERIREYGVHAHRYYELPITLVRSKDDEAQLECLWSRYWALTFCSNLFTANRKLMTKQIHQLAEVLESGVASRHQTMMKGDGYLPGHKLGSQHQRKGGGAVDDETPDGVEAFKQRSLHVRYLTSSLTSEAASGGNTAGGQKFRLSSMIFLLVLARVFLSF | not soluble |
| MGSLDHGAKEQLQSEEFGERKQFEDKELGAKKDEALHVLEGLITRSKTKLLNQAITTLLQKIEGSLKLEACPTTLVVIQAV | not soluble |
| MSLSNWPYPRIVAHRGGGKLAPENTLASIDVGAKYGHKMIEFDAKLSKDGEIFLLHDDNLERTSNGWGVAGELNWQDLLRVDAGSWYSKMFKGEPLPLLSQVAERCREHGMMANIEIKPTTGTGPLTGKMVALAARELWAGMTPPLLSSFEIDALEAAQQAAPELPRGLLLDEWRDDWRELTARLGCVSIHLNHKLLNKARVMQLKDAGLRILVYTVNKPQRAAELLRWGVDCICTDAIDVIGPNFTAQEGHHHHHH | soluble |
| MEESINQNPEAMEALISNLFGNISSLKSAYIELQSAHTPYDPEKIQAADKVVISELKNLSEMKHFYRENNPKPVCVSPQDSRLAAEIQEQQSLLKTYEVMVKKFQSEIQNKDSEITQMLQKIEEANQKRLKLEKNLKLRGMSTNQGSGGDGNLQFPDLTTELFVSTYEAAAKVVHDFSKPLINMMKAAGWDLDTAANSIEPDVVYAKRPHKEYAFESYICQRMFSGFQQKNFSVNSESATVMADDDTDTFFRQFLALKDMDPLDALDQRDYVTGGGHPRTAFYQAFLKLAKSIWILHKLAYSFDPAAKIFQVKKGSEFSDSYMESVVKNIH | soluble |
| SLMQALARTGYAGPLSLEIFNDAFRAAPTEATAIDGLRSLIWIEELAEGAAWSEASPPAVGYDGVHFIEFTLDEESAAPLGEFFSALGFRHIGRHRSKNVELWHQGDIHLVLNFETDSFAHTFRLLHGTSVCAVGVRVNDLDSAVTRAAHYKAQWFRGPVGEGEMEIPALRGIEGSLVYLVDDAQAREMQWKTDFHLFEDGQDDDAGLINIDHISYVLPPTQLLSWLLFHRTVFGFDAGPEHEIADPHGMVVSQTVTSPDNSVRIPLTVSSARETLPGRFLSEHQGGVQQIAFASGDIFATIDAMLARGLPMLRIPANYYDDLAARFDLDDALLEAMRSRNILFDRNDDGDFFHAYTETFMGRFFFEVVERRGSYSQFGAVNAPIRLAAQAGQQREG | soluble |
| MGSDKIHHHHHHMISDSISKRRSIRKYKNQSISHETIEKIIEAGINAPSSKNRQPWRFVVITEKEKESMLKAMSKGIQNEINDNGLLPGSRQHIAGANYTVEIMKQAPVTIFILNILGKSPLEKLSPEERFYEMANMQSIGAAIQNMSLTAVELGLGSLWICDVYFAYRELCEWLNTDSQLVAAISLGYPDEEPSRRPRLQLSDVTEWR | not soluble |
| GMTQTTPQPDPSRLRDELVRLHGKASPEWDSLVRLDPRFVDAYLKFAGVPQRRNHLDDKTRAFIALAADACATQLYAPGVARHIERALSFGATREELIEVLELVSTIGIHTSNVGVPVLLEVLEEEGLRKGAPPLDERRQKLKAEFETNRGYWHPTWEGLLELDPDLFEAYVEFSSVPWRTGVLSPKIKEFMYCAFDASATHLYVPGLKLHIRNALRYGATAEELMELLEIVSVTGIHGAELGAPLLEAALKRSGAAAGEPHA | soluble |
| ADEVAQTLAKVLTESSMPRENLLLSSFSHDVIRALYQHCEGYRLGVLSEFFTKKDGLLLDEVKAYSCNLNINWVRSRQIIKLQEAGYKVMCYTVNNPNKLKHLPQLDGIFSDHPKRFMQ | not soluble |
| TSKETFTHYQPQGNSDPAHTATAPGGLSAKAPAMTPLMLDTSSRKLVAWDGTTDGAAVGILAVAADQTSTTLTFYKSGTFRYEDVLWPEAASDETKKRTAFAGTAISIV | soluble |
| MGSDKIHHHHHHMKILVVGAGAVGGYFGARLAEKGEDVTFLVRERRFEELRAGLQVKSLHGDITCSPRLIRTGEKGTFDVILLSTKAYHLEQVLEDIEPFVATDTYILPLLNGMAHLKQLEQHFGAERVLGGLCFIESTLDGKGHIVQTSPSHHLLFGPLPGTRTDRLEELKQHLTGTAAPINYSDTITRDMWNKYLFITTFSGVTSLFRSAIGPIRSQEEGMMMIRRLATEAKEAMERQGAVFSDGIEQIQQQQIAQMDETMKSSLQRDMEKGNEVESAHLFGTLLSKDEATQVMLPAIYANLKIYRMSRKDV | not soluble |
| SSGAQGAEPMDSRTATTYESVEGGQNKTKLDIRSKEDEGGIQVDKLQDKVSDAAGLGGPVFGAGKDDKKQDLGVTGTG | soluble |
| MGSDKIHHHHHHDEEPKSSLTLDTYYKTSADIIGNVNYLYRDGAPDKMGNMTGAYRGSSLSVMNMVTGYFVNEYEGQEVDCSYARQLTRQNFTQSCCNYLTNDTWKGCYKSINVANAVIKYVDGVEMDGQAQYKAEARFFRALNYFYLVKMFGDVPMITEPTEDATLVEYPARTAASEVYKTVIIPDLQFAVENLPDATFAGNSHRVTKYAADMLLADVYMRLGEYANAITPLKDVINSGKFALATNDNLAEGSAFNKLRTTDDLPEVIYAREYDAAISPNGNIPVHAFNLISPTFFANSSTGNKYSLWVNVYGVSERYLNVYGEKDLRAQMNQFFHRTYTHPVDGTTLDMKMLCNWYWYDETAILETGKGTKDWNFYRYAETLLSAAEAIAQSSGVNAEAAGYLAQVKARANMEGKDVSTIASELQRLGKQAFIEECWKERLREFPLEMKIWDDCVRTGKFPQISATNKGEVQFVDLIGATNGSGAKFKETDLYWPIPVNEIQRNPNLTQNEGYSAK | not soluble |
| GPHMASMLEAKFEEASLFKRIIDGFKDCVQLVNFQCKEDGIIAQAVDDSRVLLVSLEIGVEAFQEYRCDHPVTLGMDLTSLSKILRCGNNTDTLTLIADNTPDSIILLFEDTKKDRIAEYSLKLMDIDADFLKIEELQYDSTLSLPSSEFSKIVRDLSQLSDSINIMITKETIKFVADGDIGSGSVIIKPFVDMEHPETSIKLEMDQPVDLTFGAKYLLDIIKGSSLSDRVGIRLSSEAPALFQFDLKSGFLQFFLAPKFNDEGSNSQSNGSGALEAKFEEASLFKRIIDGFKDCVQLVNFQCKEDGIIAQAVDDSRVLLVSLEIGVEAFQEYRCDHPVTLGMDLTSLSKILRCGNNTDTLTLIADNTPDSIILLFEDTKKDRIAEYSLKLMDIDADFLKIEELQYDSTLSLPSSEFSKIVRDLSQLSDSINIMITKETIKFVADGDIGSGSVIIKPFVDMEHPETSIKLEMDQPVDLTFGAKYLLDIIKGSSLSDRVGIRLSSEAPALFQFDLKSGFLQFFLAPKFNDEGSNSQASNSGALEAKFEEASLFKRIIDGFKDCVQLVNFQCKEDGIIAQAVDDSRVLLVSLEIGVEAFQEYRCDHPVTLGMDLTSLSKILRCGNNTDTLTLIADNTPDSIILLFEDTKKDRIAEYSLKLMDIDADFLKIEELQYDSTLSLPSSEFSKIVRDLSQLSDSINIMITKETIKFVADGDIGSGSVIIKPFVDMEHPETSIKLEMDQPVDLTFGAKYLLDIIKGSSLSDRVGIRLSSEAPALFQFDLKSGFLQFFLAPKFNDEE | soluble |
